This series in a line: soluble on expression in E. coli; label from the status in PepcDB or PDB records.
As to “MKIHSYIFSLLACLVIALPGYSQVDRNETLIRSALHGLEYEIKAGFSIGGTAPLPLPVEIRSIDGYNPTLAISIGGEVTKWFAVQNKLGVIVGLRLENKAMTTEATVKNYNMEILGQGGERISGVWTGGVKTKVHTSGLTIPLMATYKLSNRWNIKAGPYFSYLLSREFSGHVYEGYLREGDPVGPKVEFTDGKIATYDFSDDLRHFQWGLQIGAGWRAFKHLNIYADLTWGLNDIFRNDFQTITFAMYPIYLNIGFGYAF”, the “soluble on expression in E. coli” value is listed as “not soluble”.
“QMNTVFIKNEGVTEGEIATIGEHTAEISGVSTGTDWTRDYSQSGALRSLLGTVSTEKQGLPAEEVDEYLKKGYARNDRVGTSYLEKQYEDVLQGKKAKSEVVLDNNGKIVSQTPISKGEKGSNLKLTID”: the “soluble on expression in E. coli” value is on record as “not soluble”.
As to “MGSDKIHHHHHHMTHEFVTILHTNDLHSHVEHWPRIANWIKTRRAQLQAAGHFVLTFDVGDFIDRYDANTQATWGKANVELLNDCTFDGVTIGNNEGLGLPRDRMEDIYSERRFAVLLANIFENDHGLPKWAEEYRVFVTPKGTRISAFGLTAAYDLTYPLLDWLPAQPVETLEKLSDRVIAQSDIRILLSHLGLPTDQSLARRFKEISVILGAHTHHLLPKGQMVENTLLAAAGKYGENVGEVDLEIDEKHQVVSERAHTIKFDNLPEVESASAFLENWRESGRNILENQIISNLPTDRSTLQQIDDCADALMEKFQTKIAMISSGMFLDELPAGQLNAFQLLKDLPHTIHPMKIDILGSDLLKLFDEINLQHDHLLNQHINGSGFRGDKFGEIKFYGLHEKQVDPKQHYEIASLDHYYFLPWFHSLQSADVSFDFKNILRELTAGYYREKYSHQEAV”, the “soluble on expression in E. coli” value is “not soluble”.
For the sequence “MITGETEPACVEDASQLAEQRNGAPVMEAGCAAVPVEANATKRGYWRQRTLHSWFIGRKPQRTCIAVDIDEVLAFFVPELCAFHNKRYGTRLQATDFHSYRFAEVWGGTDTDAIRKVHEFFRTPAFQELQPIPGAKQVLQSRLARFRFVVVTSRQLVIEQETRAWLDKHFSGIFEAIYLGNQWALHPNGEHGTGVGSAAQEPQRLFANRRRKSQVCKACGAAVLIDDLPHNLLDCSENGVFGVLFDFQGQYGWSKSPAFESKDIAVVHSWEAVGELLDRL”, the “soluble on expression in E. coli” value was “not soluble”.
Regarding “MYINVVKCMWKQIKHRFEGYPSRMYVARKIIDLGFRIDRNGKIYCDDVEISDVALARAVGVDRRTVRATANTILEDEKLRGIFENMMPAGALLRDAAGELDFGVVEIEADARNPGILAAAARLIADKGISIRQAHAGDPELDETPRLTIITETPIPGGLLKDFLKIDGVKRVSIY”, the “soluble on expression in E. coli” value is “soluble”.
For “MTTAIGKKTTKLEPFKMERGVKYRDAAKTSVIQVRNIDPDQELLKKPEWMKIKLPTNSAKIDSIKYGMRRHGLHSVCEEASCPNLHECFNHGTATFMIMGAICTRRCPFCDVAHGKPLPLDPYEPRKVAETVQDMKLKYVVITSVDRDDLADRGAAHFAATVREIKALNPECKVEILVPDFRGRVEQAVAILKQNPPDVFNHNLENVPRLYREIRPGADYKWSLELLKIFKQEFPNIPTKSGLMVGLGETNEEILAVMQDLRDHGVTMLTVGQYLQPSRHHLRVERYVPPAEFEMFRSEAEKMGFEHAACGPFVRSSYHADLQAKGELVK” the value was “not soluble”; for “QLVWGPDLSEKASAQRTRVFVDAARRGEIYDNTGQLLAYTMQARSLTASPKQLRKEIEYTAKIELQDEKEYSSWDENQRKKKIEDKVDSYLEEYSNEIPKIIKDSEASANDIKSKDILKKLKADTSYEVLVRNVDPDVAENIAQKFHGIAADLQQIRQYPNGAVAENVIGKISQDGQGQFGFESSNNSVLSGIDGRKTLDVAASGEVIPGSLRDEVPATNGANVTLTLDLDMQTYVQQQLEQAVSNSGAQSASAVVLDVKTGKVLTMANSGTINPNGDIEKQLKDNKSFENTTISSPFEPGSVAKIITAAGVIEDGKSTPDEVLQVPGSIEMSGVNVRDAWEHGTVGYTTTGIFGKSSNVGTLMLAQRLGEQRFNDLLHRFGIGQNTGIELPVESQGLLPDISQ”, “not soluble”.
For the sequence “GPGSMKPSFYAVAVGKARGIYSTWAQCSEQVTGYPGCIYKGFRTLDEARSFLAAHPLPSTGSAVSLGGGSSSSVAAPYPSSSEHAALGSNYFKGRLKRETREDLLAGEESVAERQARRRRADHAQIAVAPPELSSMSASLSAATPSTTASKPLATTTTTSSPGAFEVVYVDGACSHNGTSQARAGYGGYYGSMSDPRNFSCPVPLTESQTNNRGEVRAVIHAIVQAFVDAGAPADALEATHLVDPSAWRLVDLTRPLPHLIIYTDSRYVIDGLTRYAKKWVQNGFVLSTNEPVQNQDLWRQLIRLRDRYNTLYARQQHDQQRACQWGDGHHSEADLAQLVRYTCQNARNDKSEGVELIHVRGHSKVHGNEMADSLAVMGSRLHRS”, the “soluble on expression in E. coli” value is recorded as “soluble”.
In the case of “MGSDKIHHHHHHMLGQRIKSLRKAKKLTQSDVADGIMTKSMLSMIENEKATPSLPALQSIAHRLHVSIDALLIDPRAVEMKQMIEKINSTASGYYAEGQIATMLEPYLEPAINSYWQGQIYYEYGSALRFSDTEKGLHYFDLAEDVFQQLGLRDEQIKVQISKVYFLFFLRRYEEAYRKIDGMMIFQDVPLAHETFLDYQMLQAIRVSVINDNWSQSIVFLREGIRYMREKGVYSDVSNYHRLLALFLSLEEDYEAAEFELEKLRHFFLFTEATALDQILVDLTKGSIAVHREDYAGIREARERLIEVEIEACLHYIGYFEVYLCLWNDSKEELTFDLPSAVSKIWRNAHLWRAGGEYDHAMMLYALAFAMQAGVGLDRQAEVEELTTQLSPGHFKQKIEQTLARLT”, the “soluble on expression in E. coli” value was “not soluble”.
For “SNAMKTLFLQYPACSTCQKAKKWLIENNIEYTNRLIVDDNPTVEELKAWIPLSGLPVKKFFNTSGVVYKELKLSSKLPTMTEEEQIALLATNGKLVKRPLVVTERFVLVGFKPEEWEKLK”, the “soluble on expression in E. coli” value was “soluble”.
“MEQKNEEIEAIDDRMIAGVEVNFQKMRRSKHKTEERLTSGQVDAFAQKLFEAYPDGSLEGFLDIDDVQKKKLDEQRQEFTGDYPIVQPVLDGSRELMVVLRYNPLYHAVEIYDPVQIYDSEGIPMVVKPIREQIVNLFAHLFLDKIRLIFDIEYEQQADKCSDRLRAVGAMMAIALGYNPAAMDYNLKGISKLVKKILNSESPDFKKFEKADIGTLNAKYSGQNRVTMFIGNNGETLLATRNVYGLEKHALKTGLGKMDKNGHVVERESFLEEEFHDETIYKQFHAPDLGMGKPDNVNAIKLFHVDYRDYDLQNANGLERPIYLEPYKPVQSDCFAVPNLTSTLDRVSSNGELLKYVNEVMQSITPYTPYHLHAQSVEYLRYTPRHMNMCINPLQAIRAWALLANMADGKTNTDLLNFVGKYTYPGQLENNKMMNDDILNLHFEAEKLFEGCVRVFTELPKHLWHNEDIRIIQNSYYGGKSLRGAMQHHCFATDPDGLYSCHRINEEVALSTHGAVNFVVPENHAPNWRASIALVSAMDCTFYWKTYAKPKLMDNFNFVNEQYGASKCVGYFAHADFKFFEDIYCLESRIPGVRLYITFESPDKMDSKKEFMSKLHEKIQTCGDWHTTFDSPVFLPLCTTSTPLSLYAHAKASGLSRIFSSEKSELLEMKSIPARGGARQFSTLYDHYHKTVFEVHGSDPKVENFMRKRPRRMFDQFSPARAHQCVDDSMAELHGKYQMKNPTKEFNNKMNINPLLTYRENHLNHDEPSFEWLHENHEFDLKDPKALMFNKPFYYVMTRALVGKNQLIVCAGYFNNTTWVKQQ”: the “soluble on expression in E. coli” value is reported as “not soluble”.
For “MARSDSDKNGNGGNLGFEAELFKAADKLRGNMEPSDYKHVALGLIFLKYISDAFEAKHKALLAEDALAAEDKDEYLADNVFWVPKEARWSHLQANAKQPTIGTLIDDAMRAIEKDNASLKGVLPKDYARPALNKVMLGELIDLISGIGHLLPSPSGRGAGGEGQSFDILGRVYEYFLGQFAGAEGKRGGEFYTPRSVVRVLVEMLEPYSGRVYDPCCGSGGMFVQSEKFVQEHGGRIGDIAIYGQESNYTAWRLAKMNLAVRGIDADIRWNNEGSFHKDELRDLKADYILANPPFNISDWGGDRLREDVRWQFGVPPVGNANYAWLQHIYWHLAPNGTAGVVLANGSMSSNQSGEGEIRRAMLEADAVDCMVALPGQLFYSTQIPACLWFLARNKNPANGKTGGLRDRRGHVLFIDARKMGVLVDRTRRELSDEEIQKIARTYHAWRGEPDAGDYADVAGFCKSATLDEIRKHGHVLTPGRYVGAAEVEDDGEPFEEKMARLAAQWRQQRDEAAKLDAAIEANLKELGFWE” the value was “soluble”; for “MSLLLEPSAAMIKEQKLYREMGLTDEEFARIEAILGRLPNYTETGIFAVMWSEHCSYKNSKPVLKKFPTDGPHVLQGPGEGAGIVDIGDGLAVAFKIESHNHPSAIEPYQGAATGVGGIIRDVFSMGARPIALLNSLRFGELTSPRVKYLFEQVVAGIAGYGNCVGIPTVGGEVQFDPAYEGNPLVNAMCVGIIRHEDIQRGVATGVGNTVMYVGAKTGRDGIHGATFASEELSEQSEAKRPAVQVGDPFMEKLLLEACLEAVKSDALVGIQDMGAAGLTSSSAEMASKGGFGIEMNLDLVPQREAGMTPYEMMLSESQERMLLVVKQGCEDEIAAIFAKYGLEAKAIGKVTDDKMLRLFFRGEVAAEIPVDALAKDAPVYHKPSAEPAYYREFQAMPPYIPHIEDYNQTLLGLLAQPTIASKEWVYDQYDYMVRTNTVVAPGSDAAVVRIRGTNKALALTTDCNSRYLYLDPETGGKIAVAEAARNVVCSGAKPLAITDCLNFGSPEKPEIFWQLEKAVDGMSEACRALGTPVVSGNVSLYNETNGEAVYPTPVVGMVGLIDDLSHITTQSFKQAGDLIYVIGEAKPEFGGSELQKWLEGRIFGKAPEIDLEVEASRQRQLLAAIRAGVVASAHDIAEGGLAVALAECVMGASGLGAKVTIGGDLVSELFSETQSRFVVSVKKEQKEAFEQLVEAKQIGEVTDDGAFVVNGEHGETLIHLSVAKMRNVWKGAIPCLLKSKD”, “not soluble”.
Take “MEIELICICCPKGCHLKVDDKSLRVEGNNCPRGAEYGVNEITNPVRTITSTVKVEKGEAVIVPVKTKEPIPKKLTMGCMEEINKAVINAPVKIGDVVIKNVLGTGIDVVATKNVSGI”: the “soluble on expression in E. coli” value is listed as “soluble”.
On to “MGSDKIHHHHHHMKTSQLIRKIQEKIDEAMSRLNDLESMEIKTEEYLDTFLALVNNTYKKAEIYNTLVDQWNLLMKQGDEIKRSIEEFKPEYVHHLTEMMKYDGINLLYLRENEHLRAIGIDEIAARTFQEFLKEEELAERSEAFNQAVRKTREQIQQYHMFHYYVSLTDNELKVDENYRLAGNYYRYSIDFFDKNFPYKSIGISRKLENVPELLEKFFRLREKLEGEDPEGDRVRKTLERLYSLSSFDTVEEFNAIIDEWTDLYEAYKQEDPFKTNVLSYSYINKDGRTVQKTYPTYDFLRWLSQRNRKNQEYILNNYLRRITDDPTREGYEIRDPSVVLENRLVEATIKALPNYKSGIMSEIDSLKKMSRMKRKRKEEEIQKKIMTDPFAAVGAKVPEEIKYWLLRRLDVTHPDLYEEWNRITSELQAYLEEVVKQ”, for which the “soluble on expression in E. coli” value was “not soluble”.
For “AIASTMVYPREERLEKLTQDEIISSTKLVIQGLEALKSEHNSILQSLLETIQCLKKDEEASLVHEKSSLLRKSVEMIELGLGEAQVMMALSNHLNAVESEKQKLRAQVRRLCQENQWLRDELANTQHKVQKSEQSVAQLEEEKKHLEFMNQLKKYDDGATPEVSPHNDMHRDVSLSVRQLKRLRESK”, the “soluble on expression in E. coli” value is listed as “soluble”.
“MGSDKIHHHHHHMSIQSLLDYISVTPDIRQQGKVKHKLSAILFLTVCAVIAGADEWQEIEDFGHERLEWLKKYGDFDNGIPVDDTIARVVSNIDSLAFEKMFIEWMQECHEITDGEIIAIDGKTIRGSFDKGKRKGAIHMVSAFSNENGVVLGQVKTEAKSNEITAIPELLNLLYLKKNLITIDAMGCQKDIASKIKDKKADYLLAVKGNQGKLHHAFEEKFPVNVFSNYKGDSFSTQEISHGRKETRLHIVSNVTPELL”: the “soluble on expression in E. coli” value is on record as “not soluble”.

Source of the values: the DeepSol protein solubility set.
